Earlier results on 2 substances are cited in PMC4465285.

Series [1] concerns the target F-actin (Saccharomyces cerevisiae) (UniProt P60010). Nature of the series: fluorescence titration and cosedimentation.
For series [2], the target named is F-actin (Oryctolagus cuniculus) (UniProt P68135).

On to Cofilin-1 (from UniProt P23528), for which, in series [1], the Kd is 16 nM.
For Drebrin 1-300 (from UniProt Q16643), the Kd in series [2] is 200 nM.

A word on the Kd: it is the equilibrium constant for the complex coming apart.
